The data set has as its system MS2 coat protein. As to the kind of experiment: apparent KD of MS2 coat protein; designed switch direction (-1 OFF switch, 1 ON switch): -1; higher = weaker reporter binding. The note with it: Eterna round: R98. How it is done:
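RNA-MaP: designed FMN/MS2 RNA switches (84 nt design region) are transcribed on-chip within common flanks and titrated with SNAP-549-labelled MS2 coat protein (about 1-3000 nM) in 100 mM Tris pH 7.5, 80 mM KCl, 4 mM MgCl2, without or with 200 uM FMN. Median apparent KD per design; activation ratio = KD,OFF / KD,ON.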

For “UAUAUAAUUAAGAGCUGGUCCAAAACAUGAGGAUCACCCAUGUAGGAUAUCAGCACGAUAAGUGCUGAGAAGGACAACCAGCUC [Denovo 85]”, the “apparent KD of MS2 coat protein” value (input ligand: FMN 200 uM) amounted to 15.2 nM and the “apparent KD of MS2 coat protein” value (input ligand: none) stood at 17.2 nM.

Turning to “GAGGACUGUAAUAAUGUAGAAAUACAUGAGGAUCACCCAUGUAAGGAUAUCGUCAGGAAUACUGACGAGAAGGUACAUCAGUCC [Exclusion NG 3/10-A2]”, the “apparent KD of MS2 coat protein” value reads like this: (input ligand: FMN 200 uM) 24.8 nM; (input ligand: none) 17.3 nM.

As to “GGUUGUUACGCAGGAUAUUGCCAACAGGCAGUAGGAUAUCCGAAAGGAGAAGGAUCGCCAACAGGCGAGAAGGGCGGGUUAACC [pwkr exNG2 2xF7 2FMN.10.5]”, the “apparent KD of MS2 coat protein” value was 121 nM (input ligand: FMN 200 uM) and 1240 nM (input ligand: none).

The record behind these values is the supplement of paper PMC9170038.
